The results in this text go back to article PMC8214912.

Read-outs that look alike come from different tables or passages of the source.

Common to all, as to test: NMR titration
Data set [1] addresses T1, N 1-209 (nucleocapsid N-terminal region: N-terminal flank, NTD and SR region) (SARS-CoV-2, UniProt P0DTC9 1-209).
For data set [2], the target named is T1, N 1-209 (nucleocapsid N-terminal …). The source holds these as a separate data set.
Data set [3] shares this target. This is another data set of the same source.

B1: H25 30-mer (structured_RNA)
RNA: GGUGGGAGCCUCUUUUAUGGGGUGACUGCC
B1 had a dissociation constant (Kd) in data set [1] of 19.9 ± 4.7 µM.

B2: AAUAA (ssRNA)
RNA: AAUAA
For the molecule B2, in data set [2], the Kd is 189 ± 22 µM.

B3: dUAAUAAdC (mixed)
RNA: UAAUAAC
modifications: 2'-deoxy at terminal nucleotides 1 (dU) and 7 (dC); remainder RNA
In turn, B3 showed a Kd in data set [2] of 138 ± 12 µM.

B4: TAATAAC (ssDNA)
DNA: TAATAAC
For the molecule B4, in data set [1], the equilibrium dissociation constant (Kd) is 110 ± 8 µM.

B5: GU 12-mer (ssRNA)
RNA: GUGUGUGCCUGU
As for B5, the Kd in data set [3] turned out to be 6 ± 2 µM.
